Measurements taken from paper PMC11532494 (Nature Communications, 2024).
Values joined by “and” are separate entries in the source; they are usually repeats but may differ in a detail not shown here. Equal values may be shown once. Read-outs that look alike come from different tables or passages of the source. No end group written: not given here. *: point of attachment. AMC = Cc1cc(=O)oc2cc(N*)ccc12

Assays:
VsHdaH (1b) = assay type: biochemical, Vibrio sp.; settings: VKDAC
VcHdaH (5b) = assay type: biochemical, Vibrio cholerae; settings: VcHdaH (5b); for [AMC]: Transform RFU in [AMC]
KpHdaH (1b) = KpHdaH (1b) (Klebsiella pneumoniae, UniProt A0A377Z5F6); assay type: biochemical; settings: KpHdaH (1b)
BsAcuC (2c) = target: T1, BsAcuC (2c) (Bacillus subtilis, UniProt P39067); test: Substrate screening assay (acyl-peptide-AMC); assay type: biochemical; settings: BsAcuC (2c); for [AMC]: Transform RFU in [AMC]
T1 construct: made in house; host or cells: E. coli BL21 (DE3)
T1 sequence (P39067 1-387): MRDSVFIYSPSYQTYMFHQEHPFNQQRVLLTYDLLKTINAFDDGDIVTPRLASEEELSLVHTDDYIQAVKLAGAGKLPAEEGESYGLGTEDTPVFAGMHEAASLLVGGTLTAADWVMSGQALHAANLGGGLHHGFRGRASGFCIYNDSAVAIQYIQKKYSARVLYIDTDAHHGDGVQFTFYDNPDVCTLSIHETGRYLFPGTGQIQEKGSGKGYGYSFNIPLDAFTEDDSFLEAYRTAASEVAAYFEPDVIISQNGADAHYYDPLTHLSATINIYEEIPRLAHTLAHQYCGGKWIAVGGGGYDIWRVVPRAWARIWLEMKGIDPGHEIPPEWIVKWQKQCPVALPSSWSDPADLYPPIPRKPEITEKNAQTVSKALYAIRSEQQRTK
Method: (§1) Experiments with SIRT2 and SIRT5 were supplemented with NAD^+ (500 µM). Thereafter, a solution of trypsin (25 µL, 5.0 mg/mL; final concentration of 2.5 mg/mL) was added, and the development of the assay was allowed to proceed for 90 min at room temperature before fluorescence analysis. […] To this end, a single category is given to all conversions >48% on the heatmap. […] For the H4-derived peptide LGKbio no positive control was available.

PsApaH (4) = PsApaH (4) (Pseudomonas sp. M30-35, UniProt A0A1Y0KY79); assay type: biochemical; settings: PsApaH (4)
Method: as §1

Controls = test: Substrate screening assay (acyl-peptide-AMC), control enzymes; assay type: biochemical
RsPrpH (1b) = test: Substrate screening assay (acyl-peptide-AMC); assay type: biochemical, Rhizorhabdus sp.; settings: RsPrpH (1b); for [AMC]: Transform RFU in [AMC]
RwDmhA (1b) = RwDmhA (1b) (Rhizorhabdus wittichii, UniProt A0A067XIQ6); assay type: biochemical; settings: RwDmhA (1b)
LcApaH (3) = LcApaH (3) (Legionella cherrii, UniProt A0A0W0SGS1); assay type: biochemical

| Substance | Relative Fluorescene Units (RFU) (VsHdaH (1b); Transform RFU*2, Sample 1) | Relative Fluorescene Units (RFU) (VsHdaH (1b); Transform RFU*2, Sample 2) | Relative Fluorescene Units (RFU) (VsHdaH (1b); Sample 1) | Relative Fluorescene Units (RFU) (VsHdaH (1b); Sample 2) | [AMC] (VcHdaH (5b); Sample 1) [nM] | [AMC] (VcHdaH (5b); Sample 2) [nM] | Relative Fluorescene Units (RFU) (VcHdaH (5b); Transform RFU*2, Sample 1) | Relative Fluorescene Units (RFU) (VcHdaH (5b); Transform RFU*2, Sample 2) | Relative Fluorescene Units (RFU) (VcHdaH (5b); Sample 1) | Relative Fluorescene Units (RFU) (VcHdaH (5b); Sample 2) | Relative Fluorescene Units (RFU) (KpHdaH (1b); Sample 1) | Relative Fluorescene Units (RFU) (KpHdaH (1b); Sample 2) | Relative Fluorescene Units (RFU) (KpHdaH (1b); Transform RFU*2, Sample 1) | Relative Fluorescene Units (RFU) (KpHdaH (1b); Transform RFU*2, Sample 2) | Relative Fluorescene Units (RFU) (BsAcuC (2c); Sample 1) | Relative Fluorescene Units (RFU) (BsAcuC (2c); Sample 2) | [AMC] (BsAcuC (2c); Sample 1) [nM] | [AMC] (BsAcuC (2c); Sample 2) [nM] | Relative Fluorescene Units (RFU) (BsAcuC (2c); Transform RFU*2, Sample 1) | Relative Fluorescene Units (RFU) (BsAcuC (2c); Transform RFU*2, Sample 2) | also measured |
| --- | --- | --- | --- | --- | --- | --- | --- | --- | --- | --- | --- | --- | --- | --- | --- | --- | --- | --- | --- | --- | --- |
| QPKKlau (QPKK-{AMC}; not fully specified (residue 4); printed as QPKKlau; also: lauroyl-lysine (which Lys not given here); UniProt P04637 317-320, looked up, fragment) | -308 | 12 | -154 | 6 | -112.30 | -47.85 | -230 | -98 | -115 | -49 | -177 | -96 | -354 | -192 | 1004 | 695 | 980.47 | 678.71 | 2008 | 1390 | Relative Fluorescene Units (RFU) (PsApaH (4); Sample 1): 196 RFU; Relative Fluorescene Units (RFU) (PsApaH (4); Sample 2): 66 RFU; Relative Fluorescene Units (RFU) (PsApaH (4); Transform RFU*2, Sample 1): 392 RFU; Relative Fluorescene Units (RFU) (PsApaH (4); Transform RFU*2, Sample 2): 132 RFU; [AMC] (Controls): 10.32715 µM and 12.34863 µM |
| QPKKdec (QPKK-{AMC}; not fully specified (residue 4); printed as QPKKdec; also: decanoyl-lysine (which Lys not given here); UniProt P04637 317-320, looked up, fragment) | 126 | 202 | 63 | 101 | 77.15 | 27.34 | 158 | 56 | 79 | 28 | 50 | 66 | 100 | 132 | 1598 | 1156 | 1560.55 | 1128.91 | 3196 | 2312 | Relative Fluorescene Units (RFU) (RsPrpH (1b); Sample 1): 32 RFU; Relative Fluorescene Units (RFU) (RsPrpH (1b); Sample 2): 43 RFU; [AMC] (RsPrpH (1b); Sample 1): 31.25 nM; [AMC] (RsPrpH (1b); Sample 2): 41.99 nM; Relative Fluorescene Units (RFU) (RsPrpH (1b); Transform RFU*2, Sample 1): 64 RFU; Relative Fluorescene Units (RFU) (RsPrpH (1b); Transform RFU*2, Sample 2): 86 RFU; Relative Fluorescene Units (RFU) (RwDmhA (1b); Sample 1): 19 RFU; Relative Fluorescene Units (RFU) (RwDmhA (1b); Sample 2): 47 RFU; Relative Fluorescene Units (RFU) (RwDmhA (1b); Transform RFU*2, Sample 1): 38 RFU; Relative Fluorescene Units (RFU) (RwDmhA (1b); Transform RFU*2, Sample 2): 94 RFU; [AMC] (LcApaH (3)): 143.55 nM and 182.62 nM; Relative Fluorescene Units (RFU) (PsApaH (4); Sample 1): 94 RFU; Relative Fluorescene Units (RFU) (PsApaH (4); Sample 2): 100 RFU; Relative Fluorescene Units (RFU) (PsApaH (4); Transform RFU*2, Sample 1): 188 RFU; Relative Fluorescene Units (RFU) (PsApaH (4); Transform RFU*2, Sample 2): 200 RFU; Relative Fluorescene Units (RFU) (Controls): 14990 RFU and 17431 RFU; [AMC] (Controls; Transform RFU in [AMC], Controls, Sample 1): 14.63867 µM; [AMC] (Controls; Transform RFU in [AMC], Controls, Sample 2): 17.02246 µM; Relative Fluorescene Units (RFU) (Controls; Transform RFU*2, Controls, Sample 1): 29980 RFU; Relative Fluorescene Units (RFU) (Controls; Transform RFU*2, Controls, Sample 2): 34862 RFU |
